T1: 细胞实际分泌的信号素3A (UniProt Q14563)
T1 sequence (looked up): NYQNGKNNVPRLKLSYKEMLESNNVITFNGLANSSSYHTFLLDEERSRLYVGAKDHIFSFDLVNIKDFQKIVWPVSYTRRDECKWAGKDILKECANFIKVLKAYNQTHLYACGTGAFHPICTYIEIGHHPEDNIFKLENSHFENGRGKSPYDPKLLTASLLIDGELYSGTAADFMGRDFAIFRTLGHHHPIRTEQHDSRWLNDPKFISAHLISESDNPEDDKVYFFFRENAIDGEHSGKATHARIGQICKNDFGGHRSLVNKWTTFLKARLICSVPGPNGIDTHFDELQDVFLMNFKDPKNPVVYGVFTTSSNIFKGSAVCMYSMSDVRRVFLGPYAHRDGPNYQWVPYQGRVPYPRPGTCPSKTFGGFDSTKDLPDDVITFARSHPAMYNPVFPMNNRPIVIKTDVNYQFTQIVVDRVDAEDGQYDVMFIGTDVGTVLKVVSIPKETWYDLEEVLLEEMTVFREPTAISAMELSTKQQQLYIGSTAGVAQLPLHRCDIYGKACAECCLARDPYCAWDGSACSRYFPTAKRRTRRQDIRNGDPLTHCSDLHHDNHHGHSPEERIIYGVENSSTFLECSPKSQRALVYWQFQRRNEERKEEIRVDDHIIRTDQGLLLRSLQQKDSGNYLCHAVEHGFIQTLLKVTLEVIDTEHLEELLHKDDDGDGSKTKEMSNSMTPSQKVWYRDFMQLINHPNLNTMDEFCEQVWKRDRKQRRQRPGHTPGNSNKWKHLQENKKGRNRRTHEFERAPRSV

B1: 抗信号素3A scFv抗体片段 A08 (scFv, part only; not given: linker and tags, not shown: large carriers)
scFv, part: EVQLLESGGGLVQPGGSLRLSCAASGFTFSDYAMSWVRQAPGKGLEWVSGIYYDDSSQYYADSVKGRFTISRDNSKNTLYLQMNSLRAEDTAVYYCAKNLGRFDYWGQGTLVTVSSQSVLTQPPSASGTPGQRVTISCTGSSSNIGSNAVTWYQQLPGTAPKLLIYDDNHRPSGVPDRFSGSKSGTSASLAISGLRSEDEADYYCGAWDDSLSAYVFGGGTKLTVL
B2: 抗信号素3A scFv抗体片段 C10 (scFv, part only; not given: linker and tags, not shown: large carriers)
scFv, part: EVQLLESGGGLVQPGGSLRLSCAASGFTFSDYAMSWVRQAPGKGLEWVSGIYYDDSSQYYADSVEGRFTISRDNSKNTLYLQMNSLRAEDTAVYYCARYLGLFDYWGQGTLVTVSSQSVLTQPPSASGTPGQRVTISCSGSSSNIGNNSVNWYQQLPGTAPKLLIYSDSQRPSGVPDRFSGSKSGTSASLAISGLRSEDEADYYCGSWDYSLSAYVFGGGTKLTVL
B3: 抗信号素3A scFv抗体片段 F11 (scFv, part only; not given: linker and tags, not shown: large carriers)
scFv, part: EVQLLESGGGLVQTGGSLRLSCAASGFTFSDYAMSWVRQAPGKGLEWVSWIYYDSGSKYYADSVKGRFTISRDNSKNTLYLQMNSLRAEDTAVYYCAKLNGDFDYWGQGTLVTVSSQSVLTQPPSASGTPGQRVTISCSGSSSNIGNNDVSWYQQLPGTAPKLLIYADSHRPSGVPDRFSGSKSGTSASLAISGLRSEDEADYYCGAWDSSLSGYVFGGGTKLTVL

Target: T1, 细胞实际分泌的信号素3A
Test: cell-based or functional assay

Binder	细胞生长速度 (EZ-Cytox, 131细胞, 50μg/ml scFv, 4天) [%]	细胞迁移 (transwell, 83细胞) [%]	细胞迁移 (transwell, 131细胞) [%]	细胞迁移 (transwell, U87-MG细胞, 50μg/ml scFv) [%]
B1	70	21	11	78
B2	70	44	19	70
B3	70	28	7	74

— patent CN108290942A
